Source: IntAct's records for PubMed 11782428

B1: Tyrosine-protein kinase Lyn (Homo sapiens), P07948 (parent)
chain: MGCIKSKGKDSLSDDGVDLKTQPVRNTERTIYVRDPTSNKQQRPVPESQLLPGQRFQTKDPEEQGDIVVALYPYDGIHPDDLSFKKGEKMKVLEEHGEWWKAKSLLTKKEGFIPSNYVAKLNTLETEEWFFKDITRKDAERQLLAPGNSAGAFLIRESETLKGSFSLSVRDFDPVHGDVIKHYKIRSLDNGGYYISPRITFPCISDMIKHYQKQADGLCRRLEKACISPKPQKPWDKDAWEIPRESIKLVKRLGAGQFGEVWMGYYNNSTKVAVKTLKPGTMSVQAFLEEANLMKTLQHDKLVRLYAVVTREEPIYIITEYMAKGSLLDFLKSDEGGKVLLPKLIDFSAQIAEGMAYIERKNYIHRDLRAANVLVSESLMCKIADFGLARVIEDNEYTAREGAKFPIKWTAPEAINFGCFTIKSDVWSFGILLYEIVTYGKIPYPGRTNADVMTALSQGYRMPRVENCPDELYDIMKMCWKEKAEERPTFDYLQSVLDDFYTATEGQYQQQP
partner: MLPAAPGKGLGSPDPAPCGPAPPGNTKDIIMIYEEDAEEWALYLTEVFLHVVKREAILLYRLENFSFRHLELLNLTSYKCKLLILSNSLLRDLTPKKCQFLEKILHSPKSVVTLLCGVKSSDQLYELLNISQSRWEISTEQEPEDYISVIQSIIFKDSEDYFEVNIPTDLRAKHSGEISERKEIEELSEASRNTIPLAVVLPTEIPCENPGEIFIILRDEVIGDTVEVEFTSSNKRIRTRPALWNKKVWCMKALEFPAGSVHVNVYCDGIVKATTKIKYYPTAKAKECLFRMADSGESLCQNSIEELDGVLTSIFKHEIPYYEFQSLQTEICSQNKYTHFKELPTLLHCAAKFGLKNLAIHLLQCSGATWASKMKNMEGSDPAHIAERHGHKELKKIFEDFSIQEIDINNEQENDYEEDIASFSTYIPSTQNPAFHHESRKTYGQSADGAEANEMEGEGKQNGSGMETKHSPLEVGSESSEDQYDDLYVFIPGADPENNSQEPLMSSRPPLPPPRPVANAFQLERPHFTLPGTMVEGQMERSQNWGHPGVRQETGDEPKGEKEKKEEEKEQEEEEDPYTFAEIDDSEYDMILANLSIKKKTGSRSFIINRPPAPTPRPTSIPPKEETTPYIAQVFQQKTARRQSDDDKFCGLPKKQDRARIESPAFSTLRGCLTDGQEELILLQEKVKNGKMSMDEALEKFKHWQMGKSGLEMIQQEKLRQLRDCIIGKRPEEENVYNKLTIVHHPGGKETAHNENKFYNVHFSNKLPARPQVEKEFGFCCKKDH

Variants of: B1
Conditions: with bank1_human BANK1, Q8NDB2
With P114L the “effect of a mutation on the interaction” value was “with no effect”. In the case of K275L, the “effect of a mutation on the interaction” value is reported as “decreasing interaction strength”. Y508F was tested, and the “effect of a mutation on the interaction” value was “with no effect”. R156D;S158F was tested, and the “effect of a mutation on the interaction” value was “with no effect”.
